Test results from patent US7897371B2, “Activation of mutated RAC-PK” (Novartis AG, priority 1995, dated 2011).

Assays:
mixed isoforms of PKC = experiment: Protein kinase inhibition assay, mixed isoforms of PKC (histone H1 substrate); type: biochemical
Procedure: (§1) After incubation on ice for 10 minutes, the reaction was started by the addition of 10µL of 50 mM magnesium acetate and 0.5 mM [.gamma^32P]ATP (100-200 cpm/pmol). For the assay of mixed isoforms of PKC 20µM diacylglycerol, 0.5 mM CaCl.sub2 and 100µM phosphatidylsene were also present in the incubations. The assays were carried out for 15 minutes at 30° C., then terminated and analyzed as described. See Alessi et al., Methods Enzymol, Vol. 255, pp. 279-290 (1995). One unit of activity was that amount of enzyme that catalyzed the phosphorylation of 1 nmol os substrate in 1 minute. The final concentration of DMSO in each assay was 1% (by vol). […] Mixed isoforms of PKC were assayed using histone H1 as substrate, while MAPKAP-K11 and p70 S6 kinase were assayed using the peptide […] (SEQ ID NO: 14). See Leighton et al. (1995), supra. PK B was assayed with the peptide […] [9] (SEQ ID NO: 5) and MAPKAP-K2 was assayed with the peptide […] (SEQ ID NO: 27). See Stokoe, Caudwell, Cohen and Cohen, Biochem J, Vol. 296, Pt. 3, pp. 843-849 (1993). p42 MAP kinase was assayed using MBP, and MAPKK-1 and c-Raf1 were assayed as described in Alessi et al., Methods Enzymol (1995), supra.

PK B = PK B (Homo sapiens, UniProt P31749); experiment: Protein kinase inhibition assay, PK B (peptide […] substrate); type: biochemical
Procedure: as §1

MAPKAP-K1β = target: T1, MAPKAP-K1β (Oryctolagus cuniculus, UniProt A0A5F9C4L9); experiment: Protein kinase inhibition assay, MAPKAP-K1β (peptide […] substrate); type: biochemical, rabbit; settings: read-out: IC50, MAPKAP-K1 B
T1 construct: from tissue; host or cells: rabbit skeletal muscle

p70 S6 kinase [1] = target: T2, p70 S6 kinase (Rattus norvegicus, UniProt P67999); experiment: Protein kinase inhibition assay, p70 S6 kinase (peptide […] substrate); type: biochemical
T2 construct: from tissue; host or cells: rat liver

c-Raf1 = c-Raf1 (Homo sapiens, UniProt P04049); experiment: Protein kinase inhibition assay, c-Raf1; type: biochemical
Procedure: as §1

MAPKK-1 = MAPKK-1 (Homo sapiens, UniProt Q02750); experiment: Protein kinase inhibition assay, MAPKK-1; type: biochemical
Procedure: as §1

p42 MAP kinase = p42 MAP kinase (Homo sapiens, UniProt P28482); experiment: Protein kinase inhibition assay, p42 MAP kinase (MBP substrate); type: biochemical
Procedure: as §1

RAC-PKα [2] = target: RAC-PKα (Homo sapiens, UniProt P31749)
MAPKAP kinase-1 = settings: cited from earlier work
p70 S6 kinase [3] = target: T2, p70 S6 kinase; settings: cited from earlier work
[4] = test system: CC(C)C[C@H](NC(=O)[C@H](CO)NC(=O)[C@H](CO)NC(=O)[C@@H](NC(=O)[C@H](CCCNC(=N)N)NC(=O)[C@@H]1CCCN1C(=O)[C@@H](N)CCCNC(=N)N)[C@@H](C)O)C(=O)O; experiment: purified protein, by the assay type; settings: other: phosphorylation by RAC-PKα; pH 7.5; 30.0 °C
[5] = test system: CC(C)[C@H](NC(=O)[C@@H](NC(=O)[C@H](CCCNC(=N)N)NC(=O)[C@@H]1CCCN1C(=O)[C@@H](N)CCCNC(=N)N)[C@@H](C)O)C(=O)N[C@@H](CO)C(=O)N[C@@H](Cc1ccccc1)C(=O)O; experiment: purified protein, by the assay type; settings: other: phosphorylation by RAC-PKα; pH 7.5; 30.0 °C
[6] = test system: CC(C)[C@H](NC(=O)[C@H](CCCNC(=N)N)NC(=O)[C@@H]1CCCN1C(=O)[C@@H](N)CCCNC(=N)N)C(=O)N[C@@H](CO)C(=O)N[C@@H](CO)C(=O)N[C@@H](Cc1ccccc1)C(=O)O; experiment: purified protein, by the assay type; settings: other: phosphorylation by RAC-PKα; pH 7.5; 30.0 °C
[7] = test system: CC(C)[C@H](NC(=O)[C@H](CO)NC(=O)[C@H](CO)NC(=O)[C@@H](NC(=O)[C@H](CCCNC(=N)N)NC(=O)[C@@H]1CCCN1C(=O)[C@@H](N)CCCNC(=N)N)[C@@H](C)O)C(=O)O; experiment: purified protein, by the assay type; settings: other: phosphorylation by RAC-PKα; pH 7.5; 30.0 °C
[8] = test system: C[C@@H](O)[C@H](NC(=O)[C@H](CCCNC(=N)N)NC(=O)[C@@H]1CCCN1C(=O)[C@@H](N)CCCNC(=N)N)C(=O)NCC(=O)N[C@@H](CO)C(=O)N[C@@H](Cc1ccccc1)C(=O)O; experiment: purified protein, by the assay type; settings: other: phosphorylation by RAC-PKα; pH 7.5; 30.0 °C
[9] = test system: C[C@@H](O)[C@H](NC(=O)[C@H](CCCNC(=N)N)NC(=O)[C@@H]1CCCN1C(=O)[C@@H](N)CCCNC(=N)N)C(=O)N[C@@H](CC(N)=O)C(=O)N[C@@H](CO)C(=O)N[C@@H](Cc1ccccc1)C(=O)O; experiment: purified protein, by the assay type; settings: other: phosphorylation by RAC-PKα; pH 7.5; 30.0 °C
[10] = test system: C[C@@H](O)[C@H](NC(=O)[C@H](CCCNC(=N)N)NC(=O)[C@@H]1CCCN1C(=O)[C@@H](N)CCCNC(=N)N)C(=O)N[C@@H](CO)C(=O)N[C@@H](CO)C(=O)N[C@@H](CCCCN)C(=O)O; experiment: purified protein, by the assay type; settings: other: phosphorylation by RAC-PKα; pH 7.5; 30.0 °C
[11] = test system: C[C@@H](O)[C@H](NC(=O)[C@H](CCCNC(=N)N)NC(=O)[C@@H]1CCCN1C(=O)[C@H](CCCNC(=N)N)NC(=O)CN)C(=O)N[C@@H](CO)C(=O)N[C@@H](CO)C(=O)N[C@@H](Cc1ccccc1)C(=O)O; experiment: purified protein, by the assay type; settings: other: phosphorylation by RAC-PKα; pH 7.5; 30.0 °C
[12] = test system: C[C@H](NC(=O)CNC(=O)[C@H](CCCNC(=N)N)NC(=O)[C@@H]1CCCN1C(=O)[C@@H](N)CCCNC(=N)N)C(=O)N[C@@H](CO)C(=O)N[C@@H](Cc1ccccc1)C(=O)O; experiment: purified protein, by the assay type; settings: other: phosphorylation by RAC-PKα; pH 7.5; 30.0 °C
[13] = test system: C[C@H](NC(=O)[C@H](C)NC(=O)[C@H](CCCNC(=N)N)NC(=O)[C@@H]1CCCN1C(=O)[C@@H](N)CCCNC(=N)N)C(=O)N[C@@H](CO)C(=O)N[C@@H](Cc1ccccc1)C(=O)O; experiment: purified protein, by the assay type; settings: other: phosphorylation by RAC-PKα; pH 7.5; 30.0 °C
[14] = test system: C[C@H](NC(=O)[C@H](C)NC(=O)[C@H](CCCNC(=N)N)NC(=O)[C@@H]1CCCN1C(=O)[C@@H](N)CCCNC(=N)N)C(=O)N[C@H](C(=O)N[C@@H](Cc1ccccc1)C(=O)O)[C@@H](C)O; experiment: purified protein, by the assay type; settings: pH 7.5; 30.0 °C
[15] = test system: C[C@H](NC(=O)[C@H](CCCNC(=N)N)NC(=O)[C@@H]1CCCN1C(=O)[C@@H](N)CCCNC(=N)N)C(=O)NCC(=O)N[C@@H](CO)C(=O)N[C@@H](Cc1ccccc1)C(=O)O; experiment: purified protein, by the assay type; settings: other: phosphorylation by RAC-PKα; pH 7.5; 30.0 °C
[16] = test system: C[C@H](NC(=O)[C@H](CO)NC(=O)[C@H](CO)NC(=O)[C@@H](NC(=O)[C@H](CCCNC(=N)N)NC(=O)[C@@H]1CCCN1C(=O)[C@@H](N)CCCNC(=N)N)[C@@H](C)O)C(=O)O; experiment: purified protein, by the assay type; settings: other: phosphorylation by RAC-PKα; pH 7.5; 30.0 °C
[17] = test system: C[C@H](NC(=O)[C@H](Cc1ccccc1)NC(=O)[C@H](CO)NC(=O)[C@H](CO)NC(=O)[C@@H](NC(=O)[C@H](CCCNC(=N)N)NC(=O)[C@@H]1CCCN1C(=O)[C@@H](N)CCCNC(=N)N)[C@@H](C)O)C(=O)O; experiment: purified protein, by the assay type; settings: other: phosphorylation by RAC-PKα; pH 7.5; 30.0 °C
[18] = test system: C[C@H](NC(=O)[C@H](Cc1ccccc1)NC(=O)[C@H](CO)NC(=O)[C@H](CO)NC(=O)[C@@H](NC(=O)[C@H](CCCNC(=N)N)NC(=O)[C@H](C)NC(=O)[C@H](CCCNC(=N)N)NC(=O)CN)[C@@H](C)O)C(=O)O; experiment: purified protein, by the assay type; settings: other: phosphorylation by RAC-PKα; pH 7.5; 30.0 °C
[19] = test system: N=C(N)NCCC[C@H](NC(=O)[C@@H]1CCCN1C(=O)[C@@H](N)CCCNC(=N)N)C(=O)NCC(=O)N[C@@H](CO)C(=O)N[C@@H](CO)C(=O)N[C@@H](Cc1ccccc1)C(=O)O; experiment: purified protein, by the assay type; settings: other: phosphorylation by RAC-PKα; pH 7.5; 30.0 °C
RAC-PKα [20] = type: cell-based, human
RAC-PK = RAC-PK activity immunoprecipitated from Swiss 3T3 cells (MBP substrate); type: cell-based; settings: Swiss 3T3 cells; 1 μM okadaic acid, 0.1 mM vanadate, insulin or 10% FCS
GSK3 = type: cell-based
RAC-PKα [21] = test system: RAC-PKα
p70s6k-Myc = experiment: Transient cotransfection of RAC-PKα with p70s6k-Myc; type: cell-based; settings: coexpression
Procedure: To examine this possibility, the regulation of p70^[…] is investigated in a transient cotransfection assay using human 293 cells. RAC-PKα constructs are prepared by ligating the RAC-PKα cDNA [see Jones et al. (1991), supra] in-frame to the initiator methionine, in the mammalian expression vector pECE. The construct is also subcloned into a CMV promoter-driven expression vector. The construct is confirmed by restriction analysis and sequencing. Constructs expressing Myc-tagged p70^[…] are obtained from Dr. G. Thomas, […] Institut, Basel, Switzerland. Constructs are transfected into COS cells using standard procedures.

GSK3β = type: cell-based, human
[22] = values marked *: data reported previously

T2 sequence (P67999 24-525): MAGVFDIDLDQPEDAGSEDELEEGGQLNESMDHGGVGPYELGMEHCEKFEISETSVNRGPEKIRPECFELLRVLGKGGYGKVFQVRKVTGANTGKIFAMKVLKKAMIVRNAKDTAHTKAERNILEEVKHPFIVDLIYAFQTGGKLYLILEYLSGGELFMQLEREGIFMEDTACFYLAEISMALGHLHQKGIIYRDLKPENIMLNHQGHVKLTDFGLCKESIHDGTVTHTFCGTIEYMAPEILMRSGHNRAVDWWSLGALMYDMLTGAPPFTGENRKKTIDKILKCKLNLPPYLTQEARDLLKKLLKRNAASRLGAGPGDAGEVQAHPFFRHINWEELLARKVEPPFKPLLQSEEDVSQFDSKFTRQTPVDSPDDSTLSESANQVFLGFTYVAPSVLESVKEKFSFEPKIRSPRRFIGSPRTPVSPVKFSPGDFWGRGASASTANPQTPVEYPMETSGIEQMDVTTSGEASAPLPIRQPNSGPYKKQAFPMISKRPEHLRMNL
Chain of p42 MAP kinase (P28482 whole entry): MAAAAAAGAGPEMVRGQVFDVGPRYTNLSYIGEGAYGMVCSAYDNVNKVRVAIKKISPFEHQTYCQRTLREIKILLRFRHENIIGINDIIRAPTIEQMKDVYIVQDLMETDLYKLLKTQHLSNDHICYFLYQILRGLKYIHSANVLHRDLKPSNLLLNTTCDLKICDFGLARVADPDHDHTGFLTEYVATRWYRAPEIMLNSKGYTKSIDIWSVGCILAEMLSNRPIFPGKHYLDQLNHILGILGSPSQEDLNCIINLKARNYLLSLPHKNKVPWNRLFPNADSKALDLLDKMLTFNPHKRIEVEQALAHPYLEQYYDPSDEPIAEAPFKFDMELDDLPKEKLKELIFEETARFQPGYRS
T1 sequence (A0A5F9C4L9 1-740): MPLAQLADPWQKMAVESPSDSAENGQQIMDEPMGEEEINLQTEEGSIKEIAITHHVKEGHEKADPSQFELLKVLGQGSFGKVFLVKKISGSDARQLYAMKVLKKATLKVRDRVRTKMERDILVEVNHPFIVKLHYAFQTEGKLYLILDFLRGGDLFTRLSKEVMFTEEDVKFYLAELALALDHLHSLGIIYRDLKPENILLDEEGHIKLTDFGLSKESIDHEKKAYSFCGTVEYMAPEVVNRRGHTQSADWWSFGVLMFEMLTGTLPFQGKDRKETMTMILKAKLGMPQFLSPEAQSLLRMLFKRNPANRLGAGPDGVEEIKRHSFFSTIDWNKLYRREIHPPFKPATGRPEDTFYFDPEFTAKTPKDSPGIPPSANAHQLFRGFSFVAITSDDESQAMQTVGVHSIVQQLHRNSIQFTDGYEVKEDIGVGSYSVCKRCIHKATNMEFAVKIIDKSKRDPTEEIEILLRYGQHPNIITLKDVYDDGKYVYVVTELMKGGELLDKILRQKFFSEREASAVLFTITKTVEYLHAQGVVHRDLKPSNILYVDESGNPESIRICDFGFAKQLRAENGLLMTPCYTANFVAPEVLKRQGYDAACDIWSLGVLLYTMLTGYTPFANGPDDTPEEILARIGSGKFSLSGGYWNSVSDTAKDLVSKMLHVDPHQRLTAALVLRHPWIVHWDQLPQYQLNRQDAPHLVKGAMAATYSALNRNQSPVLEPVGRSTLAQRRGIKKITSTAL
Chain of RAC-PKα (Homo sapiens, UniProt P31749) (P31749 whole entry): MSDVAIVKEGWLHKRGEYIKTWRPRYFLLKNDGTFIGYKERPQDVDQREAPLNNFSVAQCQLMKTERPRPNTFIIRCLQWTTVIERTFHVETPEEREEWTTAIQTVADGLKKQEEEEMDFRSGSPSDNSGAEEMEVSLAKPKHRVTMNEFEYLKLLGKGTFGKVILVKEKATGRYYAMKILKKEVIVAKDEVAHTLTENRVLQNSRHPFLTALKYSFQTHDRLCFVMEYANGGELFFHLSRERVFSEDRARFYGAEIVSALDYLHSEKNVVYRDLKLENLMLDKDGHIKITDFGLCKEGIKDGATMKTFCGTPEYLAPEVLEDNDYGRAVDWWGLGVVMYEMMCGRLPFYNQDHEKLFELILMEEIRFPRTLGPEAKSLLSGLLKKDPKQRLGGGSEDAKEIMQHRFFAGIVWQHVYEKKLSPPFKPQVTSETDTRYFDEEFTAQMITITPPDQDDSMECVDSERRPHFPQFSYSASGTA
Chain of PK B (P31749 whole entry): as above
Chain of MAPKK-1 (Q02750 whole entry, species assumed): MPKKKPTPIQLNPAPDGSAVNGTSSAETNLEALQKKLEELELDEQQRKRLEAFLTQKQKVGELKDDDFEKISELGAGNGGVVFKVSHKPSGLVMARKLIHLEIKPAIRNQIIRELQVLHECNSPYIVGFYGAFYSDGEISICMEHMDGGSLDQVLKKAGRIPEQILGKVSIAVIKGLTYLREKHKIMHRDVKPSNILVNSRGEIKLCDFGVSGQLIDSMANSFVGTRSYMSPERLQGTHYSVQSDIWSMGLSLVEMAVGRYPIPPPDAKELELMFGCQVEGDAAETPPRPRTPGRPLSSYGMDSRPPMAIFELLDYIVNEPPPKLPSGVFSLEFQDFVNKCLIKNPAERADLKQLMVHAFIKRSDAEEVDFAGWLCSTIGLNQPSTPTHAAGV
Chain of c-Raf1 (P04049 whole entry): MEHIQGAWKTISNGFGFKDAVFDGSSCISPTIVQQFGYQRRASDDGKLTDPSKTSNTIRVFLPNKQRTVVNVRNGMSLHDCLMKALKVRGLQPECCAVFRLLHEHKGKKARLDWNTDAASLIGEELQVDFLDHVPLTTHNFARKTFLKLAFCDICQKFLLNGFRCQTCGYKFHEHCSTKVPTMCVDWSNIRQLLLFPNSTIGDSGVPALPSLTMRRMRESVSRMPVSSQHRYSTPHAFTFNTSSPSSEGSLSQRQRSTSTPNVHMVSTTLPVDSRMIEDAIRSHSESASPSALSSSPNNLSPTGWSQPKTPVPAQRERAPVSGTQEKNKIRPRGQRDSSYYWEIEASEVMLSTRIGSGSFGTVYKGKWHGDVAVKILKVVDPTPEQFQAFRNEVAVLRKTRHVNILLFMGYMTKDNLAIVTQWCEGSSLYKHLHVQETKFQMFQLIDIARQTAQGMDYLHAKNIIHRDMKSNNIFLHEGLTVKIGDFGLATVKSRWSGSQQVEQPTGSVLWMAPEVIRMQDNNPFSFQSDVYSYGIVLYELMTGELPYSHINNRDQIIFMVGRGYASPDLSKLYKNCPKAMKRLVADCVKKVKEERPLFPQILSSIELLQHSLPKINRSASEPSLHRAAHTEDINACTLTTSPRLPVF
Chain of GSK3β (P49841 whole entry): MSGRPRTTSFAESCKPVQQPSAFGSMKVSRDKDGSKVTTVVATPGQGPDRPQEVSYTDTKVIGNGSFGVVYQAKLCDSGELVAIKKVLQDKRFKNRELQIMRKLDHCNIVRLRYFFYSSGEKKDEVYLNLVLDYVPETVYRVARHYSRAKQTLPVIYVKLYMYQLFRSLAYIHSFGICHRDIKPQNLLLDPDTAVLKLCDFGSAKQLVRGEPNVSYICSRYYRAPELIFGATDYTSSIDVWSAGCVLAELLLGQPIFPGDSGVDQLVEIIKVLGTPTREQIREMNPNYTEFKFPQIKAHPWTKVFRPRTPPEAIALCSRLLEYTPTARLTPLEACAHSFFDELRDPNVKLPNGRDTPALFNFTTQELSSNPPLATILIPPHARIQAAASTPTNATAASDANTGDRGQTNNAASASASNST

CN(C)CCCn1cc(C2=C(c3c[nH]c4ccccc34)C(=O)NC2=O)c2ccccc21 [GF 109203X]
IC50 (mixed isoforms of PKC): 30 nM
Inhibition of PK B in vitro (PK B): without inhibiting
IC50 (MAPKAP-K1β): 50 nM
IC50 (p70 S6 kinase [1]): 100 nM
Inhibition of c-Raf1 in vitro (c-Raf1): without inhibiting
Inhibition of MAPKK-1 in vitro (MAPKK-1): without inhibiting
Inhibition of p42 MAP kinase in vitro (p42 MAP kinase): without inhibiting

KKRNKTLSVA [peptide substrate with Lys at position n-3]
Phosphorylation by RAC-PKα (RAC-PKα [2]): does not phosphorylate
Km (MAPKAP kinase-1; read-out: Km for phosphorylation by MAPKAP-K1): 17 µM
MAPKAP kinase-1 Vmax (U/mg) (MAPKAP kinase-1; [22]): 840* U/mg
Km (p70 S6 kinase [3]; read-out: Km for phosphorylation by p70 S6 kinase): 34 µM
p70 S6 kinase Vmax (U/mg) (p70 S6 kinase [3]; [22]): 760* U/mg

RAC-PKα (Homo sapiens)
Km [4]: 8 µM
Vmax [4]: 278 U/mg
Km [5]: 30 µM
Vmax [5]: 365 U/mg
Km [6]: 25 µM
Vmax [6]: 273 U/mg
Km [7]: 21 µM
Vmax [7]: 300 U/mg
Km [8]: 25 µM
Vmax [8]: 233 U/mg
Km [9]: 30 µM
Vmax [9]: 300 U/mg
Km [10]: 80 µM
Vmax [10]: 308 U/mg
Km [11]: 8 µM
Vmax [11]: 385 U/mg
Km [12]: 105 µM
Vmax [12]: 160 U/mg
Km [13]: 25 µM
Vmax [13]: 215 U/mg
Km [14]: 25 µM
Vmax [14]: 230 U/mg
Km [15]: 49 µM
Vmax [15]: 114 U/mg
Km [16]: 250 µM
Vmax [16]: 265 U/mg
Km [17]: 8 µM
Vmax [17]: 305 U/mg
Km [18]: 10 µM
Vmax [18]: 230 U/mg
Km [19]: 60 µM
Vmax [19]: 163 U/mg

insulin: insulin from Novo-Nordisk
Activation of transfected RAC-PKα (RAC-PKα [20]): 20 fold
Half time for activation of transfected RAC-PKα (RAC-PKα [20]): 1 min
Increase in RAC-PK activity (RAC-PK): 4.5 fold
Increase in 32P-labelling of GSK3-α and GSK3-β (GSK3): 60-100%
Inhibition of GSK3 (GSK3): 40-50%
Half-time (t0.5) of activation of RAC-PK (RAC-PKα [21]): 1 min

B1: RAC-PKα: human RAC protein kinase α, wild type, SEQ ID NO. 3 (protein)
chain: MNDVAIVKEGWLHKRGEYIKTWRPRYFLLKNDGTFIGYKERPQDVEQRESPLNNFSVAQCQLMKTERPRPNTFIIRCLQWTTVIERTFHVETPEEREEWTTAIQTVADGLKRQEEETMDFRSGSPSDNSGAEEMEVALAKPKHRVTMNEFEYLKLLGKGTFGKVILVKEKATGRYYAMKILKKEVIVAKDEVAHTLTENRVLQNSRHPFLTALKYSFQTHDRLCFVMEYANGGELFFHLSRERVFSEDRARFYGAEIVSALDYLHSEKNVVYRDLKLENLMLDKDGHIKITDFGLCKEGIKDGATMKTFCGTPEYLAPEVLEDNDYGRAVDWWGLGVVMYEMMCGRLPFYNQDHEKLFELILMEEIRFPRTLGPEAKSLLSGLLKKDPTQRLGGGSEDAKEIMQHRFFANIVWQDVYEKKLSPPFKPQVTSETDTRYFDEEFTAQMITITPPDQDDSMECVDSERRPHFPQFSYSASGTA
Increase of basal p70s6k-Myc activity (p70s6k-Myc): 3.5 fold
Increase of insulin-stimulated p70s6k-Myc activity (p70s6k-Myc): 3 fold
Increase in GSK3 activity on PP2A treatment (GSK3β): 68%
